The results in this text go back to patent US20210063414A1, “METHODS FOR PREVENTING AND/OR TREATING BONE LOSS CONDITIONS BY MODULATING IRISIN” (Dana-Farber Cancer Institute, Inc., priority 2018, published 2021).

Test [1] deals with T1, MLO-Y4 cell surface proteins (Mus musculus, UniProt Q8K273).
T1 construct: endogenous in cells; host or cells: MLO-Y4
T1 sequence (Q8K273 1-131): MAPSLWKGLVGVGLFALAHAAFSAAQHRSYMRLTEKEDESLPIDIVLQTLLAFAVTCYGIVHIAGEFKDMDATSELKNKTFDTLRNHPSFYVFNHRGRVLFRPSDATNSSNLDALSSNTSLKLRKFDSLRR
Briefly: Crosslinking/co-immunoprecipitation/mass spectrometry (TMT quantitative proteomics) to identify irisin receptors. In kind it is binding. To be noted: TMT ratio, Mmgt1 Membrane magnesium transporter 1. In short, it runs like this: (§1)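 Mouse MLO-Y4 cells were switched to serum-free FreeStyle medium for 4 h, chilled, then exposed to 10 nM His-tagged irisin (or adipsin as control) for 20 min. Cells were crosslinked with 1.5 mM DTSSP (30 min, ice), and bound proteins were pulled down on Ni-NTA and eluted with 250 mM imidazole. Eluates were separated by SDS-PAGE, trypsin-digested in gel, TMT 6-plex labelled and quantified by MS3-based LC-MS/MS on an Orbitrap Fusion Lumos.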

The target in test [2] is T2, MLO-Y4 cell surface proteins (Mus musculus, UniProt P39654).
T2 construct: endogenous in cells; host or cells: MLO-Y4
T2 sequence (P39654 1-663): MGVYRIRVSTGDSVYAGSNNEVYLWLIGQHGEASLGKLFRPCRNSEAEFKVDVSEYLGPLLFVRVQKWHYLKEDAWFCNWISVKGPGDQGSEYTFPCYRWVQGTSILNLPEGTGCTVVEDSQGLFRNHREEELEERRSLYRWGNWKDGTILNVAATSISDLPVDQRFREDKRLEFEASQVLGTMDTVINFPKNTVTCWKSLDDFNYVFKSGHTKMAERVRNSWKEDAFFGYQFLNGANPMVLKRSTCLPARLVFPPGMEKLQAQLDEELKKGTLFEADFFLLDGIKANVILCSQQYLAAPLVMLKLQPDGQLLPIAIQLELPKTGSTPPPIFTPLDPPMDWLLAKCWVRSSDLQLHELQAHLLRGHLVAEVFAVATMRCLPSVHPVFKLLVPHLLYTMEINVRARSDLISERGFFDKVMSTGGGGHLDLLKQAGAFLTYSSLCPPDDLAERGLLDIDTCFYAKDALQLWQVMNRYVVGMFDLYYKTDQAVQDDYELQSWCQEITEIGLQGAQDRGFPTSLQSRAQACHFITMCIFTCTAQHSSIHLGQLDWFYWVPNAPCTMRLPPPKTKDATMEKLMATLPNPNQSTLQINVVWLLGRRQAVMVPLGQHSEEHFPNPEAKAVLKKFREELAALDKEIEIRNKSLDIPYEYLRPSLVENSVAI
The description is as above. It counts as binding. The conditions noted are these: co-precipitated protein Alox15 (LOX15_MOUSE). In short, it runs like this: as §1

B1: irisin: secreted cleaved form of FNDC5; recombinant human/mouse irisin with C-terminal his tag produced in HEK293 cells (protein)
chain: DSPSAPVNVTVRHLKANSAVVSWDVLEDEVVIGFAISQQKKDVRMLRFIQEVNTTTRSCALWDLEEDTEYIVHVQAISIQGQSPASEPVLFKTPREAEKMASKNKDEVTMKE
modifications: left off: small tags and cut ends
notes: secreted cleaved form of FNDC5; recombinant human/mouse irisin with C-terminal his tag produced in HEK293 cells
For B1, the irsin/adipsin in test [1] is 2.94. Also, in test [2], the TMT signal-to-noise ratio is 9.028 and the “irisin/adipsin TMT signal-to-noise ratio” value was 0.064.
